The target in one data set is Thioflavin T (ThT). As to the kind of experiment: ThT binding assay (ThT fluorescence emission spectrum). The note with it: read off a plot.
Data set [1] addresses human ZBP1-Zαβ (residues 1-166) (human) (UniProt Q9H171). As to the kind of experiment: SAXS; ZBP1-Zαβ at 5 mg/mL, 20 mM Tris-HCl pH 7.4, 100 mM NaCl.
For data set [2] the target is unchanged. The experiment in a line: dynamic light scattering; ZBP1-Zαβ at 5 mg/mL (high concentration), 20 mM Tris-HCl pH 7.4, 100 mM NaCl, room temperature.
Data set [3] deals with the molecule itself. As to the kind of experiment: negative-staining electron microscopy; purified proteins on carbon films, 0.2% uranyl acetate.
Data set [4] deals with the molecule itself. As to the kind of experiment: SEC; Superdex 200 10/300, 20 mM Tris-HCl, 1 M NaCl, pH 7.5; elution at the void position.
The next data set concerns the target T1, mCherry-ZBP1-Zαβ (Homo sapiens, UniProt Q9H171 1-166).
T1 sequence: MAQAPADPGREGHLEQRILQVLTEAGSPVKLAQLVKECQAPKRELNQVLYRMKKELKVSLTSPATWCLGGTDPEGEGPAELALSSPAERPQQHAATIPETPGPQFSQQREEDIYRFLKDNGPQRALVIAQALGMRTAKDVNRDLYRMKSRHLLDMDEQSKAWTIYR
As to the kind of experiment: in vitro co-condensation (microscopy); Z-RNA promotes condensates; EMSA: protein 0, 5, 10, 20 nM with 10 nM dsDNA, on ice 1 h, 6% polyacrylamide; protein and DNA stocks in 20 mM Tris-HCl pH 7.4, 100 mM NaCl. The note with it: protein: recombinant; tags: mCherry fusion; label: 5'-FAM.

Changes are numbered by the printed parent chain.

With “ZBP1-RHIM1 (residues 168-224) (from UniProt Q9H171) I206A; Q207A; I208A; G209A”, the response in the data set with Thioflavin T (ThT) (parent: est. 1900) is 1200.
As for “ZBP1-RHIM 1 + 2 (residues 168-280) (from UniProt Q9H171) I206A; Q207A; I208A; G209A”, the response with Thioflavin T (ThT) (parent: est. 2300) came to 880.
In the case of “human ZBP1-Zαβ (residues 1-166) (from UniProt Q9H171 1-166) (domain or fragment)”, the stoichiometry N in data set [1] and in data set [2] was 2 in each case.

B1: ZBP1-RHIM1 + 2 AAAA (domain or fragment, human, UniProt Q9H171 168-280, looked up)
chain: EDSGRRAKSASIIYQHNPINMICQNGPNSWISIANSEAAAAAHGNIITRQTVSREDGSAGPRHLPSMAPGDSSTWGTLVDPWGPQDIHMEQSILRRVQLGHSNEMRLHGVPSE
notes: also called 4 A mutant of RHIM 1 + 2; 4 A; source: E. coli BL21 Codonplus (DE3)-RIPL, purified (Ni-NTA, Superdex 200 10/300)
As to B1, the binding result in data set [3] was “binds”.

B2: ZBP1-RHIM 1 + 2 (residues 168-280) (domain or fragment, human, UniProt Q9H171 168-280, looked up)
chain: B1 chain with A39I, A40Q, A41I, A42G
notes: the tag is inferred from the purification; also called RHIM 1 + 2 high-oligomer seed; source: E. coli BL21 Codonplus (DE3)-RIPL, purified (Ni-NTA, Superdex 200 10/300)
For the molecule B2, the binding result in data set [4] is on record as “binds”.
Turning to ACGCGCGCGCGUUUUUGCGCGCGCGC (structured_RNA, 2'-O-methyl-8-methylguanosine (m8Gm), positions not given) [Z-RNA], in the data set with mCherry-ZBP1-Zαβ, the binding result is given as “binds”.

B3: ZBP1-RHIM1 AAAA (domain or fragment, human, UniProt Q9H171 168-224, looked up)
chain: EDSGRRAKSASIIYQHNPINMICQNGPNSWISIANSEAAAAAHGNIITRQTVSREDG
notes: also called 4 A mutant of ZBP1-RHIM 1; 4 A; source: E. coli BL21 Codonplus (DE3)-RIPL, purified (Ni-NTA, Superdex 200 10/300)
With B3, the binding result in data set [3] is listed as “binds”.

B4: ZBP1-RHIM1 (residues 168-224) (domain or fragment, human, UniProt Q9H171 168-224, looked up)
chain: B3 chain with A39I, A40Q, A41I, A42G
notes: the tag is inferred from the purification; source: E. coli BL21 Codonplus (DE3)-RIPL, purified (Ni-NTA, Superdex 200 10/300)
Regarding B4, the binding result in data set [4] is “binds”.

(Values after PMC11233663, “ZBP1 condensate formation synergizes Z-NAs recognition and signal transduction” (Cell Death & Disease, 2024).)
